# Measured values published in PMC4733052, “Heart of glass anchors Rasip1 at endothelial cell-cell junctions to support vascular integrity” (eLife, 2016).
# Substitutions are numbered along the chain they refer to. Names may count otherwise.
# T1: αIIb integrin cytoplasmic tail (Homo sapiens (Human), UniProt P08514, biotin on the in vivo biotinylation peptide tag)
# T1 chain: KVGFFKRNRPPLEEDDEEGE
# B1: recombinant Rasip1 RA domain (residues 134-285) (domain or fragment, human, UniProt Q5U651 134-285, looked up)
# chain: EPPLATRATAPPGVLKIFGAGLASGANYKSVLATARSTARELVAEALERYGLAGSPGGGPGESSCVDAFALCDALGRPAAAGVGSGEWRAEHLRVLGDSERPLLVQELWRARPGWARRFELRGREEARRLEQEAFGAADSEGTGAPSWRPQK
# notes: Rasip1, human, Ras-association (RA) domain residues 134-285; Cloned into pETM-11; also called Rasip1 RA domain wild-type; Rasip1 wild-type
# B2: recombinant Rasip1 RA domain (residues 134-285) R182E (domain or fragment, human, UniProt Q5U651 134-285, looked up)
# chain: B1 chain with R49E
# notes: Rasip1, human, RA domain residues 134-285 with R182E; also called Rasip1(R182E); Rasip1 RA domain (R182E)
# B3: human Rap1 isoform Rap1B (residues 1–167), GMP-PNP-bound (natural protein, UniProt P61224 1-167, looked up)
# chain: MREYKLVVLGSGGVGKSALTVQFVQGIFVEKYDPTIEDSYRKQVEVDAQQCMLEILDTAGTEQFTAMRDLYMKNGQGFALVYSITAQSTFNDLQDLREQILRVKDTDDVPMILVGNKCDLEDERVVGKEQGQNLARQWNNCAFLESSAKSKINVNEIFYDLVRQINR
# notes: Rap1B, human, residues 1-167; Loaded with GMP-PNP; expression and purification as in Gingras et al., 2013; source: Escherichia coli strain CK600K (pTAC vector), purified, nucleotide exchanged for GMP-PNP
# B4: recombinant His-MBP-fusion Rasip1 central domain (residues 266-550) (protein)
# chain: EAFGAADSEGTGAPSWRPQKNRSRAASGGAALASPGPGTGSGAPAGSGGKERSENLSLRRSVSELSLQGRRRRQQERRQQALSMAPGAADAQIGTADPGDFDQLTQCLIQAPSNRPYFLLLQGYQDAQDFVVYVMTREQHVFGRGGNSSGRGGSPAPYVDTFLNAPDILPRHCTVRAGPEHPAMVRPSRGAPVTHNGCLLLREAELHPGDLLGLGEHFLFMYKDPRTGGSGPARPPWLPARPGATPPGPGWAFSCRLCGRGLQERGEALAAYLDGREPVLRFRPR
# Experiments:
# [1] = target: the molecule itself; experiment: SEC; Rasip1 RA domain alone (50 μM) on Superdex-75 (10/300); apparent mass against calculated monomer mass 16.3 kDa
# [2] = target: B3; experiment: ITC; VP-ITC at 25°C; 335 μM GMP-PNP-bound Rap1B from the syringe into 30 μM Rasip1 RA domain (monomer concentration) in the cell; 20 mM Sodium Phosphate, 200 mM NaCl, 3 mM MgCl2, pH 6.5, 0.1 mM GMP-PNP; single-site fit; details: both partners purified
# [3] = target: B1; experiment: as above; details: both partners purified
# [4] = target: T1, αIIb integrin cytoplasmic tail; experiment: pull-down (NeutrAvidin bead-immobilised tail peptide, Coomassie-stained SDS-PAGE)
binder,measurement,setting,value
B1,stoichiometry N,[1],2
same,Kd,[2],770 ± 90 nM
B2,binding result,[1],binds
B3,stoichiometry N,[3],2 Rap1 monomers per Rasip1 dimer
B4,binding result,[4],no binding
